In PMC9729883:

Legend:
[1] = molecular target: afucosylated IgG1 and IgG3 (HLA-A2 mAbs, as a group for a mean dissociation rate); assay: BLI; SAX2 tips loaded with biotinylated HLA-A2 (0.25 ug/mL), then recombinant HLA-A2 IgG (3 ug/mL, 600 s), dipped into 5 uM monomeric FcγRIIIa V158; 0.05% Tween-PBS; off-rate from a one phase exponential decay fit, reference tip subtracted
[2] = molecular target: unmodified forms (of BB7.2 IgG1 and IgG3, as a group for a mean dissociation rate); assay: as above

## FcγRIIIa V158 (human, monomeric) (receptor)
[1]
  koff: 0.021 s⁻¹
[2]
  koff: 0.46 s⁻¹
